Test results published in PMC9958085, “A novel mechanism underlying allosteric regulation of ADAMTS-13 revealed by hydrogen−deuterium exchange plus mass spectrometry” (Research and Practice in Thrombosis and Haemostasis, 2022).
Blank lines part the entries; values can stand above or below the binder they belong to.

Legend:
[1] = target: T1, N-terminal ADAMTS-13 fragment MDTCS (aa1-685) (UniProt Q76LX8 30-685); assay: SPR; CUB fragment immobilised on a CM5 chip through amine-coupling; N-terminal fragment perfused at 30 μl/min for 120 s, dissociation 300 s; KD from maximal RU as a function of concentration (0-1.0 μM), Prism 8.0; details: both partners purified
T1 construct: signal peptide in the construct; ADAMTS-13, N-terminal fragment MDTCS (metalloprotease, disintegrin-like domain, first TSP1 repeat, cysteine-rich and spacer domain), aa1-685; The signal peptide and propeptide are probably removed on secretion (surmise); also called ADAMTS-13 variant truncated after spacer domain; source: Drosophila (S2) cell line, purified
T1 sequence (looked up): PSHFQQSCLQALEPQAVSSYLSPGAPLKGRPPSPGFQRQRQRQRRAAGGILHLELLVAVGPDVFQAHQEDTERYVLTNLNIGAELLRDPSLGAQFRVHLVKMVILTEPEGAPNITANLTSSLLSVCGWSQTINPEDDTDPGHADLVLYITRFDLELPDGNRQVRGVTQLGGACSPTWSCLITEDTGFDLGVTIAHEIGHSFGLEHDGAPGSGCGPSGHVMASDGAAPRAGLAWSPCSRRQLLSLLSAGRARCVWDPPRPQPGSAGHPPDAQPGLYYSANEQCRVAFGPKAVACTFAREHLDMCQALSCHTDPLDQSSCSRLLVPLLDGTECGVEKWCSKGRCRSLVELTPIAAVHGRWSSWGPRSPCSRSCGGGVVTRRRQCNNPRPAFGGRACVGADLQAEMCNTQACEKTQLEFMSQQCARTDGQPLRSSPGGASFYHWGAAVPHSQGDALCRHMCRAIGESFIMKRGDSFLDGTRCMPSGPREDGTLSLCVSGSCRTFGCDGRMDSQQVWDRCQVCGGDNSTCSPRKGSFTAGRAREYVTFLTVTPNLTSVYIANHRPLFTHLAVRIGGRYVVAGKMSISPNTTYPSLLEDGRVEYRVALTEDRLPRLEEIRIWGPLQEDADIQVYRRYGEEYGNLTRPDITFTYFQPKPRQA

[2] = target: T2, ADAMTS-13 CUB domain fragment; assay: as above; details: both partners purified
T2 chain: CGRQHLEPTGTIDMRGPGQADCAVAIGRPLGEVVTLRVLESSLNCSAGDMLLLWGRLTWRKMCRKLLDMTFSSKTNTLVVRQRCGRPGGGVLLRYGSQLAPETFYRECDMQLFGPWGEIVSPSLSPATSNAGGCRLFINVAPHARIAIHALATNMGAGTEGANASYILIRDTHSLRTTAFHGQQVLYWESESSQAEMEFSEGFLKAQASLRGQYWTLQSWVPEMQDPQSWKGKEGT

Kd [1]: 0.33 µM
B1: ADAMTS-13 CUB domain fragment (domain or fragment)
chain: T2 chain
modifications: CUB1+CUB2 taken from the conventional CUB1 start to the C-terminus; HEK-293 expressed (likely N-glycosylated); amine-coupled to CM5 chip

Kd [2]: 0.46 µM
B2: ADAMTS-13 construct consisting of a disintegrin, the first thrombospondin type 1 repeat, a cysteine-rich and a spacer domain (DTCS) (domain or fragment)
chain: RPQPGSAGHPPDAQPGLYYSANEQCRVAFGPKAVACTFAREHLDMCQALSCHTDPLDQSSCSRLLVPLLDGTECGVEKWCSKGRCRSLVELTPIAAVHGRWSSWGPRSPCSRSCGGGVVTRRRQCNNPRPAFGGRACVGADLQAEMCNTQACEKTQLEFMSQQCARTDGQPLRSSPGGASFYHWGAAVPHSQGDALCRHMCRAIGESFIMKRGDSFLDGTRCMPSGPREDGTLSLCVSGSCRTFGCDGRMDSQQVWDRCQVCGGDNSTCSPRKGSFTAGRAREYVTFLTVTPNLTSVYIANHRPLFTHLAVRIGGRYVVAGKMSISPNTTYPSLLEDGRVEYRVALTEDRLPRLEEIRIWGPLQEDADIQVYRRYGEEYGNLTRPDITFTYFQPKPRQA
modifications: disintegrin start by convention, end 685 from printed MDTCS limit; HEK-293 expressed (likely glycosylated) / CUB1+CUB2 taken from the conventional CUB1 start to the C-terminus; HEK-293 expressed …
